As usually defined, the Kd is the equilibrium constant for the complex coming apart.

Drawing on US20210332428A1, this text covers Kd and fold increase of the average co-localization ratios after the phosphorylation for one substance.

Test [1] concerns the target human β2-adrenergic receptor (ADRB2) in nanodiscs, GRK2-phosphorylated, DNA barcoded (human) (UniProt P07550). In words: polony co-localization, β-arr2 titration on isoproterenol-saturated phosphorylated ADRB2, one-site-specific fit.
Test [2] shares this target. In words: polony co-localization at varied β-arr2 concentrations; reference is ADRB2 without GRK2-mediated phosphorylation.

The substance “β-arr2-TolA-HaloTag (β-arrestin-2, DNA barcoded) (from UniProt P19934 131-225)” had a Kd in test [1] of 0.95 nM. Also, in test [2], the fold increase of the average co-localization ratios after the phosphorylation fell in the range of 3 to 11 fold.
